{"source": "patent US20140235820A1", "about": "“METHODS AND COMPOSITIONS FOR MODULATING THE Wnt PATHWAY” (Genentech, Inc., priority 2010, published 2014)", "key": {"[1]": {"molecular_target": "T1, sclerostin binding to LRP6 E1E2 (Homo sapiens, UniProt O75581)", "T1 construct": "construct E1E2-amino acids A20-E631 of LPR6; made in house; host or cells: Tni insect cells (baculovirus, secreted)", "T1 sequence (O75581 20-631)": "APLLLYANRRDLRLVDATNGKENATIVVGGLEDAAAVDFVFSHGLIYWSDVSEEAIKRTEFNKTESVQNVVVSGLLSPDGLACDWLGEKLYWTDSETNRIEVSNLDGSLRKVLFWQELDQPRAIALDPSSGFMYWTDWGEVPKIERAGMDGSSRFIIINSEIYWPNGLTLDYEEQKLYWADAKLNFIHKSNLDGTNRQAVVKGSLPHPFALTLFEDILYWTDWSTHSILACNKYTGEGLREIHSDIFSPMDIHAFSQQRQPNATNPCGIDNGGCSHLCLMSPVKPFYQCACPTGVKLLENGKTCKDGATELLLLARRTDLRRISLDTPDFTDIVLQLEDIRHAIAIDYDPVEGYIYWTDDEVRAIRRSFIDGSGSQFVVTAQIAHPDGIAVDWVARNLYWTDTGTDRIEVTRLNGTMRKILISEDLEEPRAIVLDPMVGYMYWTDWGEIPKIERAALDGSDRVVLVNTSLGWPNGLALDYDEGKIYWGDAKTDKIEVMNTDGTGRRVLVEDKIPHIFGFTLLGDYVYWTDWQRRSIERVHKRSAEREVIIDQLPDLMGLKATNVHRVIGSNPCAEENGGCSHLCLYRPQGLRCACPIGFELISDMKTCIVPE", "assay": "Peptide inhibition of sclerostin binding to LRP6 E1E2 (biolayer interferometry)", "details": "peptide 20-fold higher than IC50; ligand three-fold higher than dissociation constant", "protocol": "(§1) FIG. 22. […] Binding was assessed by biolayer interferometry, as described in Example 1. Immobilized LRP6 E1E2 was exposed to protein ligand (Wnt 9b, Dkk1, or sclerostin) present in solution at a concentration three-fold higher than the measured dissociation constant for E1E2. Competing peptides were added at a saturating level (20-fold higher than the measured IC50 value). Peptide A: Ac-NSNAIKN-am; Peptide B: Ac-[…]-am (disulfide); Peptide C: Ac-[…]-am (disulfide)\n(§2) Binding kinetics were measured by biolayer interferometry using an Octet Red instrument (ForteBio) as previously described (11). Streptavidin (SA) biosensors were loaded with biotinylated hLRP6 in 50 mMTris, pH 8, 300 mM NaCl, 5% (v/v) glycerol, and 0.05% (w/v) Triton X-100. The loaded biosensors were washed in the same buffer before carrying out association and dissociation measurements for the indicated times. The Kd of each interaction was determined using steady state-analysis through the Octet Red software v6.3. Each reported value represents an average of three or more experiments at different concentrations, with a fitted experimental curve for which the square of the correlation coefficient (R^2) is above 0.96.\n(§3) To support the conclusions from protein mutagenesis, peptides were assayed for inhibitory activity toward binding of various ligands to LRP6. Three different peptides inhibited binding of the inhibitors Dkk1 and sclerostin to LRP6 E1E2 without affecting the binding of Wnt9B (FIG. 22)."}, "[2]": {"molecular_target": "T2, Dkk1 binding to LRP6 E1E2 (Homo sapiens, UniProt O75581)", "T2 construct": "construct E1E2-amino acids A20-E631 of LPR6; made in house; host or cells: Tni insect cells (baculovirus, secreted)", "T2 sequence (O75581 20-631)": "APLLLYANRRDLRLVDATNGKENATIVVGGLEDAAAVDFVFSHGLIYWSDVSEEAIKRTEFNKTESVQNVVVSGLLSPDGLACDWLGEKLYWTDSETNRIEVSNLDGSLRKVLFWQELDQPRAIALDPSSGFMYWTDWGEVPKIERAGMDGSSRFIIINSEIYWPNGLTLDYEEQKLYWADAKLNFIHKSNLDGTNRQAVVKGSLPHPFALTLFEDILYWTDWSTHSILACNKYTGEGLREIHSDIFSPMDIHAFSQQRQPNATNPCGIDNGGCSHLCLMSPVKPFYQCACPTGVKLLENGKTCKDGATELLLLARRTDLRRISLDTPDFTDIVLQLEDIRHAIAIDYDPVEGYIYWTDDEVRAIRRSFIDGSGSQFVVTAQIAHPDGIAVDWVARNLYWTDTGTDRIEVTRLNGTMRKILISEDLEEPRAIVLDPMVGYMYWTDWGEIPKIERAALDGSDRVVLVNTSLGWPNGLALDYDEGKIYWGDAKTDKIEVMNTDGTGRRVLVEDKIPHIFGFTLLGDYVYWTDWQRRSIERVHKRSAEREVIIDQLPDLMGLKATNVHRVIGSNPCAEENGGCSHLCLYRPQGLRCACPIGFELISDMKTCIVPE", "assay": "Peptide inhibition of Dkk1 binding to LRP6 E1E2 (biolayer interferometry)", "details": "peptide 20-fold higher than IC50; ligand three-fold higher than dissociation constant", "protocol": "as §1, §2, §3"}}, "note": "Positions of bridges follow the written chain, without caps; N, C: chain ends."}
{"substance": "Ac-GSLCSNRIKPDTHCSS-am (disulfide) (Ac-GSLCSNRIKPDTHCSS-NH2; disulfide 4-14 (inferred)) [Peptide C]", "values": [{"measurement": "inhibition of sclerostin binding to LRP6 E1E2", "setting": "[1]", "result": "inhibit binding"}, {"measurement": "inhibition of Dkk1 binding to LRP6 E1E2", "setting": "[2]", "result": "inhibit binding"}]}
